In patent US20160031996A1 (CSL, published 2016):
Residue numbers refer to the chain shown, from its start. Values belong to the binder of their own block, whether it stands above or below them.

Assays:
[1] = target: T1, human IL-3Rα E51Q/S59A double mutant, full length (human, UniProt P26951 19-378); test: flow cytometry, MFI normalised to WT
T1 chain: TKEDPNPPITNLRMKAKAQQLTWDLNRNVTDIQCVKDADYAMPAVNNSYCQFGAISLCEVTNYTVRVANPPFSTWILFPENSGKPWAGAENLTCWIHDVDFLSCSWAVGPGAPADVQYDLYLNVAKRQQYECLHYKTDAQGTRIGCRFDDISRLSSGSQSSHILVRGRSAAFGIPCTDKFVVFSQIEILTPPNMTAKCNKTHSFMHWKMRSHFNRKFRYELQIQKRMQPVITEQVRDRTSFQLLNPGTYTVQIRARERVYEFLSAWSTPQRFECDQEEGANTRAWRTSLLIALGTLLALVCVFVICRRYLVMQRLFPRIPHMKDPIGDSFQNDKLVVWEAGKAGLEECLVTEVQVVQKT
Protocol: (§1) Median fluorescence intensity (MFI) of each antibody was determined for WT IL-3Rα and for each IL-3Rα mutant. The MFI of WT IL-3Rα staining for each antibody was set as 100% then the MFI of each mutant was normalized to a percent of WT staining.

[2] = target: T2, human IL-3Rα S59A/P88T double mutant, full length (human, UniProt P26951 19-378); test: flow cytometry, MFI normalised to WT
T2 chain: T1 chain with Q33E, P70T
Protocol: as §1

[3] = target: T3, human IL-3Rα E51Q/P88T double mutant, full length (human, UniProt P26951 19-378); test: flow cytometry, MFI normalised to WT
T3 chain: T1 chain with A41S, P70T
Protocol: as §1

[4] = target: T4, human IL-3Rα E51Q/S59A/P88T triple mutant, full length (human, UniProt P26951 19-378); test: flow cytometry, MFI normalised to WT
T4 chain: T1 chain with P70T
Protocol: as §1

[5] = target: T1, human IL-3Rα E51Q/S59A double mutant, …; test: Western blot after SDS-PAGE of whole cell extracts
[6] = target: T2, human IL-3Rα S59A/P88T double mutant, …; test: Western blot after SDS-PAGE of whole cell extracts
[7] = target: T3, human IL-3Rα E51Q/P88T double mutant, …; test: Western blot after SDS-PAGE of whole cell extracts
[8] = target: T4, human IL-3Rα E51Q/S59A/P88T triple …; test: Western blot after SDS-PAGE of whole cell extracts
[9] = target: T1, human IL-3Rα E51Q/S59A double mutant, …; test: flow cytometry on transfected cells (FIG. 5)
[10] = target: T2, human IL-3Rα S59A/P88T double mutant, …; test: flow cytometry on transfected cells (FIG. 5)
[11] = target: T3, human IL-3Rα E51Q/P88T double mutant, …; test: flow cytometry on transfected cells (FIG. 5)
[12] = target: T4, human IL-3Rα E51Q/S59A/P88T triple …; test: flow cytometry on transfected cells (FIG. 5)

MFI as percent of WT staining [1]: 1.4 % of WT MFI
MFI as percent of WT staining [2]: 3 % of WT MFI
MFI as percent of WT staining [3]: 1.4 % of WT MFI
MFI as percent of WT staining [4]: 1 % of WT MFI
binding result [5]: no binding
binding result [6]: no binding
binding result [7]: no binding
binding result [8]: no binding
B1: monoclonal antibody 7G3 (antibody, V domains shown)
VH: EVQLQQSGPELVKPGASVKMSCKASGYTFTDYYMKWVKQSHGKSLEWIGDIIPSNGATFYNQKFKGKATLTVDRSSSTAYMHLNSLTSEDSAVYYCTRSHLLRASWFAYWGQGTLVTVSA
VL: DFVMTQSPSSLTVTAGEKVTMSCKSSQSLLNSGNQKNYLTWYLQKPGQPPKLLIYWASTRESGVPDRFTGSGSGTDFTLTISSVQAEDLAVYYCQNDYSYPYTFGGGTKLEIKR
notes: mouse monoclonal antibody (hybridoma ATCC HB-12009)

MFI as percent of WT staining [1]: 2.4 % of WT MFI
MFI as percent of WT staining [2]: 5 % of WT MFI
MFI as percent of WT staining [3]: 2.5 % of WT MFI
MFI as percent of WT staining [4]: 2.9 % of WT MFI
binding result [9]: no binding
binding result [10]: no binding
binding result [11]: no binding
binding result [12]: no binding
B2: antibody CSL362 (antibody, V domains shown)
VH: EVQLVQSGAEVKKPGESLKISCKGSGYSFTDYYMKWARQMPGKGLEWMGDIIPSNGATFYNQKFKGQVTISADKSISTTYLQWSSLKASDTAMYYCARSHLLRASWFAYWGQGTMVTVSS
VL: DIVMTQSPDSLAVSLGERATINCESSQSLLNSGNQKNYLTWYQQKPGQPPKPLIYWASTRESGVPDRFSGSGSGTDFTLTISSLQAEDVAVYYCQNDYSYPYTFGQGTKLEIKR
